In PMC3526665 (Protein and peptide letters, 2010):

Target: the molecule itself
Experiment: SEC

B1: cytoplasmic domain of QseC (QseC-CD) (domain or fragment, E. coli)
chain: RERRFTSDAAHELRSPLTALKVQTEVAQLSDDDPQARKKALLQLHSGIDRATRLVDQLLTLSRLDSLDNLQDVAEIPLEDLLQSSVMDIYHTAQQAKIDVRLTLNAHSIKRTGQPLLLSLLVRNLLDNAVRYSPQGSVVDVTLNADNFIVRDNGPGVTPEALARIGERFYRPPGQTATGSGLGLSIVQRIAKLHGMNVEFGNAEQGGFEAKVSWLE
  stoichiometry N: 2
